# Reference: the supplement of paper PMC10724198
# ± gives the standard deviation of the averaged measurements.
# System: Saccharomyces cerevisiae
# Assay: protein stability index of tFT-peptide fusion (C-terminal peptide) (PSI (0-1 scale)); higher = more stable (slower turnover)
# Settings: genetic background: wild type; temperature: 30 C
# 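Also: PSI is a weighted mean of sequencing reads over stability bins, variants kept only with over 10 reads, mCherry proximal and sfGFP distal, peptide attached via GGGS linker.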
row,Sequence,protein stability index
1,VLHQWWCIGLGC,0.736 ± 0.013
2,SRPLPPSLPPPP,0.756 ± 0.0098
3,DIRKAEISANFC,0.59434 ± 2.4e-05
4,SASSAHLDGACR,0.691 ± 0.0075
5,GLVRGGGGTVGG,0.81 ± 0.22
6,EARFLWLTFLFG,0.546 ± 0.068
7,PPRPPSPPASRA,0.77 ± 0.076
8,VQLSISCEPPSN,0.7391 ± 0.007
9,IKGHLYDFPPGT,0.792 ± 0.1
10,LGTLLWWGAGRG,0.708 ± 0.02
11,PSPGPPATRPAL,0.719 ± 0.0036
12,MCVFGLFCSCFD,0.586 ± 0.082
13,VTRRIPPRGGPR,0.72 ± 0.074
14,TRGPKYTMVVKR,0.672 ± 0.017
15,GASCRDCVTRGS,0.745 ± 0.042
16,RPSPPPTPPGPH,0.656 ± 0.039
17,GGVFREEGAAER,0.693 ± 0.021
18,AGTIRTTPLTAL,0.643 ± 0.033
19,PEILSLDPLPSL,0.662 ± 0.018
20,PKPDFPGRHLSR,0.654 ± 0.093
21,PPPPLPLPPFSP,0.8017 ± 0.0011
22,GFILTVAPNLEH,0.648 ± 0.031
23,SIIYKRKKGRRW,0.714 ± 0.039
24,PPLPPSPPCPPA,0.642 ± 0.079
25,HVLRVWKMCVLE,0.586 ± 0.033
26,PLPPPRSSPVSS,0.658 ± 0.04

row,Sequence,protein stability index
1,HPFARSLRSQIT,0.734 ± 0.043
2,RGRLCRESGSRS,0.711 ± 0.033
3,TSSSDCRSPAPP,0.744 ± 0.038
4,VVSLPITGTVTL,0.722 ± 0.029
5,ASGGLVGAWVCV,0.675 ± 0.0091
6,RLFSFPPPPTPP,0.705 ± 0.011
7,YGTGNGRRTYFD,0.735 ± 0.04
8,PLPFSPPFPPSS,0.732 ± 0.055
9,IESVGRTTRQGE,0.748 ± 0.11
10,AREEGRQNQGMP,0.665 ± 0.042
11,QNRKELVERPKR,0.702 ± 0.017
12,RVGERVEGGGVV,0.6085 ± 0.0034
13,PSPLPRPPPLPL,0.656 ± 0.039
14,PGDFSWAQCLFP,0.752 ± 0.048
15,LSSITLTYVSDF,0.781 ± 0.12
16,TDTCLQDCLVFV,0.546 ± 0.039
17,CDCDESYFNPLG,0.666 ± 0.037
18,GKNRKKEEHAKR,0.702 ± 0.12
19,VSRHRRLAGMIW,0.735 ± 0.018
20,ERKQRKREQRDR,0.6609 ± 0.0038
21,PSPCPPRPPPSP,0.753 ± 0.1
22,PAASPVDEKVRL,0.633 ± 0.016
23,SRRRSPARPSLP,0.7462 ± 0.0045
24,SVSPRVSSLSPL,0.671 ± 0.013
25,GPGGGGGLWVRV,0.617 ± 0.016
26,LPPPPPPPPLPH,0.705 ± 0.1

row,Sequence,protein stability index
1,QYSDRQGGRATD,0.708 ± 0.015
2,KSLRLFSVLSFV,0.627 ± 0.016
3,HFCFKVFSVRAP,0.627 ± 0.018
4,CSLCILSWTFPS,0.6464 ± 0.0026
5,FKLVGRHLHSFD,0.652 ± 0.06
6,PPDALTHPTPPQ,0.703 ± 0.013
7,LFTLFPPFFYSR,0.681 ± 0.0079
8,KTNNQVDTSVKD,0.645 ± 0.054
9,WGDGSGRVWEIS,0.68 ± 0.03
10,VHFFHLCFCEIL,0.673 ± 0.051
11,PVFSHTDSRYRP,0.681 ± 0.09
12,SRRGFTHDGLKD,0.645 ± 0.032
13,PPPPPPTPSLRL,0.72 ± 0.021
14,RILLIRRKEKYL,0.5578 ± 0.0028
15,RGGGQVLGARVG,0.634 ± 0.017
16,VVGAALRDGPRE,0.71 ± 0.012
17,KERKEKKKKKNK,0.7227 ± 0.0045
18,SLGSRFWGPYPF,0.679 ± 0.029
19,CVLLGSTIPAIV,0.645 ± 0.043
20,SRSKVVVHNSYW,0.724 ± 0.14
21,PPPPPPPPSALP,0.719 ± 0.043
22,PLLSLGCFPFCL,0.724 ± 0.082
23,YLRGRCSSLSLR,0.698 ± 0.036
24,SRRVSLGLSVDS,0.662 ± 0.074
25,FNRTRRLPLDSL,0.7018 ± 0.0053
26,GLNVLVWALLSQ,0.548 ± 0.032

row,Sequence,protein stability index
1,FSMHFARFFSCS,0.687 ± 0.061
2,FWKSVMRYYFKR,0.669 ± 0.027
3,VLRSPHYRPRRE,0.673 ± 0.055
4,VRRGVGAVVFGG,0.655 ± 0.08
5,RRKGRKTSMRNG,0.667 ± 0.048
6,SGFQIRVPVFMG,0.619 ± 0.0095
7,EYFKTKQKKKKE,0.753 ± 0.12
8,DRGFSVGGGWGW,0.676 ± 0.066
9,LSALQQSSAPSI,0.691 ± 0.057
10,PRPLPPPLPCPP,0.682 ± 0.015
11,LRQEVVRPEWYM,0.66 ± 0.054
12,LENIHVLETIFT,0.6022 ± 0.0054
13,KAKKKRRGTSKN,0.703 ± 0.066
14,GFRWGYIGGWRW,0.741 ± 0.01
15,PCTRIPPLDSPL,0.718 ± 0.058
16,GGFVVGGGGWLG,0.733 ± 0.033
17,LGPLPHDGFSMF,0.761 ± 0.011
18,SPAGGPRGGEGV,0.678 ± 0.075
19,LLLPFVSPPVYS,0.569 ± 0.031
20,QPALGNTNKYKN,0.676 ± 0.049
21,TKTKKKKNKKQE,0.719 ± 0.067
22,RFCIARGSLLDY,0.554 ± 0.025
23,WGVCWRVWGFGC,0.677 ± 0.074
24,WRFTSCCPDPAT,0.772 ± 0.076
25,LSPPSSPPPTPS,0.714 ± 0.076
26,PPPSTPLSPSSP,0.72 ± 0.11

row,Sequence,protein stability index
1,RRGDMSEGEREE,0.672 ± 0.052
2,RSIQNLQENIIR,0.663 ± 0.073
3,SKLEREKQNKGY,0.634 ± 0.021
4,GGWGGVCGACVV,0.702 ± 0.035
5,KKKRKKNRKTNK,0.67 ± 0.02
6,PPPSHPLSPPRP,0.717 ± 0.24
7,PVKTHPPPPPLP,0.724 ± 0.024
8,SILVAGVSAGRC,0.669 ± 0.021
9,LPPPPLPPHPPL,0.748 ± 0.067
10,RGGGWGRKVSVG,0.659 ± 0.095
11,SPVPLPPPLPSL,0.664 ± 0.023
12,LPPCPPGGRRSR,0.706 ± 0.036
13,NGMVDDQSEVNR,0.682 ± 0.074
14,WISLRRIKSNRE,0.802 ± 0.014
15,SEIKKNKLTVMK,0.677 ± 0.016
16,RETPPALRSFPV,0.613 ± 0.26
17,LICRRVRLSMRG,0.571 ± 0.028
18,DTEYVFLYSSQE,0.7029 ± 0.0051
19,SEPPPPTPPPLP,0.679 ± 0.18
20,CAPPSSPCLCSI,0.701 ± 0.064
21,RCGRGVAAEWLS,0.668 ± 0.06
22,SALFLVPRASWL,0.659 ± 0.036
23,EVTDSVKTEPAT,0.6463 ± 0.0043
24,SSLVRFDSSAPL,0.665 ± 0.033
25,DCREALLAKVYL,0.627 ± 0.07
26,GLEGSVRRVRGS,0.701 ± 0.011

row,Sequence,protein stability index
1,KVSKHIKTNDSI,0.65 ± 0.02
2,GWTLIFGRTSEG,0.678 ± 0.023
3,QSRERDGSIRNP,0.644 ± 0.021
4,PPLLPSPPRPPL,0.774 ± 0.078
5,PPPLRAFPPPLL,0.648 ± 0.06
6,SRPTSGPPQPPL,0.707 ± 0.022
7,GRLKSTSTIRRF,0.722 ± 0.021
8,PSPPLPPPYPLP,0.716 ± 0.084
9,VLKVFIRERRVR,0.703 ± 0.081
10,GAVTNHAMASRP,0.725 ± 0.035
11,ALLPLTHLPLHP,0.666 ± 0.1
12,LLFFSCGGVSSV,0.657 ± 0.053
13,GGGGGKAGSHLG,0.632 ± 0.01
14,VGVGRAALRWYG,0.6716 ± 0.0035
15,LRLLYGYWGKFL,0.547 ± 0.0072
16,VVVRVAEGGGRW,0.666 ± 0.047
17,PPPFLQPLPASP,0.729 ± 0.045
18,HPPHFPTPFFSP,0.702 ± 0.036
19,SNLPVSSLPSLS,0.6818 ± 0.0048
20,PPLAPDPPPRVY,0.654 ± 0.013
21,GRGKKRKERAER,0.649 ± 0.045
22,SYSSRSCALRVI,0.533 ± 0.043
23,RFGSFVSISRVG,0.603 ± 0.14
24,VPPKHLYPLPPP,0.612 ± 0.007
25,LPPPAPRSHCPL,0.725 ± 0.098
26,NTDPAKRNHPRK,0.71379 ± 0.00067

row,Sequence,protein stability index
1,VYSSVPGRIAID,0.708 ± 0.008
2,ALRGSYTSFALA,0.623 ± 0.066
3,LCCLSSLAMLFF,0.7 ± 0.12
4,PSPDLRAPSSVR,0.731 ± 0.024
5,QSAPWPSPLSFS,0.718 ± 0.019
6,FPVGVRLNQNET,0.718 ± 0.017
7,TQRIEKEPTKKY,0.703 ± 0.04
8,GRPKGGGIGEAG,0.6928 ± 0.00079
9,KNIEKKKQKDTQ,0.645 ± 0.058
10,CASLATAPPTSQ,0.728 ± 0.026
11,ALLPPPCFFLLP,0.673 ± 0.0041
12,SASSFGTLYCYS,0.6966 ± 0.0019
13,TGGESEPRDTIQ,0.701 ± 0.017
14,GRLRNVSLLSFC,0.662 ± 0.011
15,LPSLSSFALHMP,0.685 ± 0.018
16,SPWWAPPSPPYP,0.582 ± 0.015
17,RIPIGDSHIALK,0.692 ± 0.1
18,SSVYLRRSCDHD,0.699 ± 0.017
19,PLLPRLNIPREF,0.658 ± 0.056
20,SLSVPPRPSSPP,0.624 ± 0.017
21,AVCWDVSRCLGL,0.7 ± 0.019
22,EWGGGGGGGKCV,0.733 ± 0.054
23,LASVLRESRIST,0.671 ± 0.0078
24,KKKMINQKKKKD,0.649 ± 0.016
25,VCNFCFLPASLV,0.636 ± 0.021
26,SIIRYNKSATIT,0.667 ± 0.047

row,Sequence,protein stability index
1,FPRLPSRPLSSL,0.6898 ± 0.0033
2,LSNATPAHAGKP,0.706 ± 0.13
3,MVSFEWCLARSY,0.501 ± 0.054
4,LFSSSLISPLFA,0.582 ± 0.025
5,PPPPLPPSPCSL,0.567 ± 0.019
6,CSIVGLGACVSW,0.669 ± 0.0083
7,LLPPPSTPPRLI,0.716 ± 0.052
8,HGVTPFFSSSPR,0.632 ± 0.012
9,RKEKNRKEKSIQ,0.668 ± 0.013
10,WGGGRGLRGRWG,0.694 ± 0.057
11,ITEGGANLEGRF,0.661 ± 0.029
12,FPPPPPHTPSSA,0.694 ± 0.057
13,FPAYPLPPPAPN,0.697 ± 0.067
14,GYTSADHATALY,0.755 ± 0.054
15,SQLKHLPPDREC,0.679 ± 0.016
16,PPAASSFRLSSC,0.751 ± 0.1
17,VWSWGEGGGAVV,0.7 ± 0.035
18,RPPLLSPTRTLP,0.707 ± 0.15
19,AVGGWRAAGGGG,0.7114 ± 0.0042
20,LVTGRVASPPLG,0.696 ± 0.043
